The values that follow come from patent publication US20230348603A1.

The target of assay [1] is Human VSIG4-L-Fc (human). Briefly: BLI cross-blocking on hVSIG4-L-Fc, competitor 14C05 first.
Assay [2] deals with Human VSIG4-L-Fc (human). Briefly: BLI cross-blocking on hVSIG4-L-Fc, competitor 12A12 first.

Sequence of Human VSIG4-L-Fc (human) (chain, as listed by the source limits assumed): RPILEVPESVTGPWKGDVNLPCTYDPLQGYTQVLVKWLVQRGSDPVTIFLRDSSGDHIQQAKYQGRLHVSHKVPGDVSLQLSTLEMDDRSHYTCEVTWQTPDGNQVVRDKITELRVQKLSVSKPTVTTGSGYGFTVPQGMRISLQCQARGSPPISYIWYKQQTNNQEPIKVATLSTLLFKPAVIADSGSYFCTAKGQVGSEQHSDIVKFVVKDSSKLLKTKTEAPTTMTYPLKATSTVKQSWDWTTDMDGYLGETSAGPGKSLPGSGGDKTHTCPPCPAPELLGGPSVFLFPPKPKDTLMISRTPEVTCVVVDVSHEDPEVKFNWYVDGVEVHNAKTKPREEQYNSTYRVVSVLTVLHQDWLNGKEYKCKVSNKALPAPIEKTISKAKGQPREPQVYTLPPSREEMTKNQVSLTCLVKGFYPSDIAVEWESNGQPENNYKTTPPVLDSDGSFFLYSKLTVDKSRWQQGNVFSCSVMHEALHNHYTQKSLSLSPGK

In the case of isotype control antibody (Table 16), the binding signal (nm shift) with Human VSIG4-L-Fc (human) [1] and in the assay with Human VSIG4-L-Fc (human) [2] was 0 nm in each case.
